# Assay results published in US10925928B2, “Method for treating chemotherapy-induced male infertility” (THE BOARD OF REGENTS OF THE UNIVERSITY OF TEXAS SYSTEM, priority 2013, dated 2021).
# “Also recorded” adds a separate entry of the source.
# Legend:
# C57BL/6 mice [1] = assay: Acute mouse study: immunohistochemistry of undifferentiated spermatogonia (PLZF) and apoptosis 5 days after busulfan +/- G-CSF; format: in vivo; settings: five days after busulfan treatment
# Protocol: (§1) FIGS. 3A-3D. This study evaluated the chronic and acute effects of G-CSF treatment on susceptibility to cytotoxic damage by busulfan alkylating chemotherapy. (A) Five-week old C57BL/6 mice were treated with a sterilizing dose of busulfan (44 mg/kg) on day 0. Some busulfan-treated mice also received injections of recombinant human G-CSF (50 μg/kg/day) on days −2 through 4 (seven days total, see group 3 in B). (B) 3 animals were used for each of three treatment groups as shown. Animals in group 1 served as an “untreated” control group (received 0.1% BSA/DPBS and DMSO vehicles only), while those in group 2, which received only busulfan (plus 0.1% BSA/DPBS vehicle), served as positive controls for busulfan cytotoxicity. Animals in the experimental group 3 received both busulfan and daily G-CSF injections. (C) 8-10 weeks after treatment, some of the mice were euthanized and testes removed for histological evaluation of spermatogenesis. (D) In an “acute” study, testes were removed on day 5 of the experiment (one day after the last G-CSF treatment, dark triangle). These testis tissues were used for immunohistochemical analysis of undifferentiated spermatogonia (PLZF) and apoptosis (activated Caspase 3 and TUNEL, see FIGS. 10-12).
# FIG. 10. […] The numbers of PLZF+spermatogonia in stained testis sections from mice treated as in FIG. 3 and analyzed as in FIG. 3D are shown. […] Statistical significance was determined by student's T-test.
# FIG. 11. […] Despite increased numbers of PLZF+spermatogonia in busulfan-treated animals that also received G-CSF (FIG. 10), the proportions of PLZF+spermatogonia that were positive for activated Caspase 3 (top) were not different between animals treated with G-CSF compared to busulfan alone (p=0.38).
# FIG. 12. […] Despite increased numbers of PLZF+spermatogonia in busulfan-treated animals that also received G-CSF (FIG. 10), the proportions of PLZF+spermatogonia that were positive for TUNEL were not different between animals treated with G-CSF compared to busulfan alone (p=0.28).
# Shown in FIG. 10 are the numbers of PLZF+spermatogonia in stained testis sections from mice treated as in FIG. 3. […] Statistical significance was determined by student's T-test.
# Despite increased numbers of PLZF+spermatogonia in busulfan-treated animals that also received G-CSF, the proportions of PLZF+spermatogonia that were positive for activated Caspase 3 (FIG. 11) or TUNEL (FIG. 12) were not different between animals treated with G-CSF compared to busulfan alone (p=0.38 and p=0.28, respectively).
# rhesus macaques [2] = settings: 8-12 mg/kg busulfan without G-CSF; two animals; total sperm per ejaculate; cited from earlier work
# C57BL/6 mice [3] = assay: Mouse testis weight and histological evaluation of spermatogenesis two months after busulfan +/- G-CSF; format: in vivo
# Protocol: as §1
# FIG. 4. Mouse testis weights 2 months after busulfan treatment +/−G-CSF. Two months after treatment, testes were removed from the treated mice and weighed. […] But, testis weights from animals treated with busulfan+G-CSF were not different from those treated with busulfan+vehicle. Statistical significance was determined by a student's T-test.
# FIGS. 5A-5F. […] Tiled brightfield images of H&E-stained sections of mouse testes from (A) group 1 (DMSO+vehicle), (B) group 2 (busulfan+vehicle), and (C) group 3 (busulfan+G-CSF). Dashed box inset indicates the area shown in D-F. Scale bars=500 μm. Enlarged images of the dashed boxes in A-C are shown in (D-F), respectively. Scale bars=50 μm. Filled arrowheads=seminiferous tubules with spermatogenesis. Open arrowheads=no spermatogenesis.
# FIGS. 6A-6B. Quantitatively more mouse spermatogenesis was observed after busulfan treatment when mice received G-CSF treatment. Seminiferous tubule cross-sections from mice treated as shown in FIG. 5 were systematically counted and categorized as containing complete spermatogenesis (complete), up to round spermatid stage (round spermatids), up to primary spermatocytes (1° spermatocytes), or containing no spermatogenesis (empty or Sertoli cell-only). (A) The percentage of all seminiferous tubule cross-sections counted from all animals in each group which fall in the four categories is shown. […] (B) The same data presented in A are combined by group to show the percentage of seminiferous tubules containing any spermatogenesis or no spermatogenesis (empty bar segment). […] Statistically significant results (p<0.05) were determined by Tukey-Kramer ANOVA.
# The results of meta-analysis of the rhesus macaque busulfan studies prompted additional studies in mice to (1) replicate the results observed in rhesus macaques and (2) determine whether G-CSF could act directly upon testicular germ cells to prevent male infertility after busulfan treatment. In the first experiment, 5 week-old C57BL/6 mice were treated with G-CSF for one week (50 μg/kg/day) and administered busulfan (44 mg/kg) on day 3 (see FIG. 3), mimicking the approach used to administer G-CSF in rhesus monkeys. Two months after completing G-CSF treatment, the mice euthanized and their testes removed. […] The testes were then analyzed histologically (FIG. 5) to determine if G-CSF treatment affected the degree of spermatogenesis after busulfan treatment. Unlike control testes, in which most tubules contained complete spermatogenesis (FIGS. 5A and D), many tubules were devoid of germ cells (empty or Sertoli cell-only) in animals treated with busulfan (FIGS. 5B-C and E-F).
# rhesus macaques [4] = assay: Meta-analysis of ejaculated sperm counts in rhesus macaques after busulfan chemotherapy with or without G-CSF; format: in vivo, rhesus macaque
# Source text: FIG. 1. Timeline for rhesus macaque granulocyte colony stimulating factor (G-CSF) and chemotherapy administration. FIG. 1 illustrates the timing of experimental administration of G-CSF and busulfan alkyating chemotherapy in the context of a study testing spermatogonial stem cell transplantation. Male rhesus macaques were used as recipients for spermatogonial stem cell transplantation after busulfan treatment. In order to restore the hematopoietic system after busulfan chemotherapy, autologous transplants of hematopoietic stem cells harvested from the peripheral blood (PBSCs) following G-CSF mobilization were used. Animals received daily subcutaneous injections with the cytokine G-CSF (and in some cases, also SCF) for six days to mobilize hematopoietic stem cells from the bone marrow into the general circulation. […] Animals were monitored closely for hematopoietic deficits with weekly (or more frequent) complete blood count (CBC). […] Weekly ejaculated sperm counts measured the effect of busulfan on spermatogenesis and the progression of spermatogenic recovery after transplant. […]
# Animals received daily subcutaneous injections with the cytokine G-CSF for 6 days to mobilize hematopoietic stem cells from the bone marrow into the general circulation. […] Animals were monitored closely for hematopoietic deficits with weekly (or more frequent) complete blood count (CBC). […]
# irradiated mice = settings: G-CSF 100 μg/kg/day for 3 days prior to 5 Gy testicular gamma irradiation; measured 3 weeks later; cited from earlier work
# [5] = 2 day pre-treatment and 5 day post-treatment with G-CSF 50 μg/kg, p<0.05 Tukey-Kramer ANOVA
molecule,measurement,setting,value
"CS(=O)(=O)OCCCCOS(C)(=O)=O [busulfan, reference compound]","numbers of PLZF+ spermatogonia per tubule, busulfan-treated groups compared with vehicle-treated animals",C57BL/6 mice [1]; student's T-test,significantly lower
same,"loss of spermatogenesis (azoospermia), mean sperm counts",rhesus macaques [2],loss of spermatogenesis (azoospermia) for at least one year
same,"spermatogenesis, busulfan alone compared to control animals","C57BL/6 mice [3]; busulfan 44 mg/kg, two months after treatment, histology of seminiferous tubule cross-sections",significantly less spermatogenesis
same,"testis weights, busulfan-treated animals compared with controls","C57BL/6 mice [3]; busulfan 44 mg/kg, two months after treatment, student's T-test",significantly smaller; also recorded: significantly reduced
SCF: cytokine given in some cases in addition to G-CSF for mobilization of hematopoietic stem cells,"spermatogenic recovery, animal given SCF in addition to G-CSF compared with the other two G-CSF animals","rhesus macaques [4]; one monkey of the G-CSF group, data not shown",no apparent difference in spermatogenic recovery
"granulocyte colony-stimulating factor (protein, UniProt P09919 31-207, looked up, protein produced from the gene encoding colony-stimulating factor 3; known by trade names neupogen, neulasta, filgrastim) Granulocyte …: TPLGPASSLPQSFLLKCLEQVRKIQGDGAALQEKLVSECATYKLCHPEELVLLGHSLGIPWAPLSSCPSQALQLAGCLSQLHSGLFLYQGLLQALEGISPELGPTLDTLQLDVADFATTIWQQMEELGMAPALQPTQGAMPAFASAFQRRAGGVLVASHLQSFLEVSYRVLRHLAQP",time at which spermatogenesis recovered after busulfan treatment,"rhesus macaques [4]; 8-11 mg/kg busulfan plus G-CSF mobilization and PBSC transplants, three animals, endogenous spermatogenesis",≥ 20 weeks
same,"proportion of PLZF+ spermatogonia positive for activated Caspase 3, G-CSF compared to busulfan alone","C57BL/6 mice [1]; early apoptosis, p=0.38",not different
same,"number of PLZF+ spermatogonia per tubule cross-section, G-CSF + busulfan compared with busulfan alone","C57BL/6 mice [1]; p=0.035, student's T-test",significantly higher
same,"proportion of PLZF+ spermatogonia positive for TUNEL, G-CSF compared to busulfan alone","C57BL/6 mice [1]; late apoptosis, p=0.28",not different
same,"empty seminiferous tubules, G-CSF + busulfan compared with busulfan alone",C57BL/6 mice [3]; [5],significantly fewer; also recorded: significantly less
same,"seminiferous tubules containing complete spermatogenesis, G-CSF + busulfan compared with busulfan alone",C57BL/6 mice [3]; [5],significantly more
same,"tubules with any degree of spermatogenesis, G-CSF + busulfan compared with busulfan alone",C57BL/6 mice [3]; [5],significantly more
same,"testis weights, busulfan + G-CSF compared with busulfan alone","C57BL/6 mice [3]; G-CSF 50 μg/kg/day for seven days, busulfan 44 mg/kg, two months after treatment",not different; also recorded: did not differ significantly
same,"recovery of spermatogenesis after busulfan treatment, G-CSF compared with controls","C57BL/6 mice [3]; histological analysis, G-CSF 50 μg/kg/day, busulfan 44 mg/kg, two months",significantly better recovery of spermatogenesis
same,numbers of surviving differentiated spermatogonia following sub-sterilizing irradiation,irradiated mice,modest improvement
